Laboratory results from the supplement of paper PMC12636428.

system: Saccharomyces cerevisiae; assay: transcriptional activation domain activity (GFP:mCherry ratio, weighted mean of sorted bins, harmonized to initial dataset scale) (arbitrary fluorescence ratio units); higher = stronger transcriptional activation; details: beta-estradiol 1 µM; induction time 4 h
How it was run: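 Sorting into 8 bins by GFP:mCherry ratio followed a 4-hour hold at 30 °C after cultures were diluted 1:5 into SC with 1 uM beta-estradiol. The yeast diploids carried a GFP reporter and had barcoded protein tiles, fused to an estradiol-inducible synthetic transcription factor, integrated at URA3. Barcodes were then sequenced, and tiles with under 50 reads were removed. Activation activity is the read-weighted mean of bin median fluorescence, averaged across barcodes and linearly mapped onto the initial dataset scale.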

Sequence | transcriptional activation domain activity
ILCASLHLLGHLPFRFCDVVLLFICHMFQELGRFDLIPGPVAHLTLRHSIVAA | 63500
MSENVDPPSPHDKSEAPTKRGRGRPKGSKNKSAAAGAVEQEDPAPVIPRKRRL | 36300
EKLVEEVQETPKDKKKRKRDVEAEDVEASAKSEKKLKKKKSKSSAEEAAPADA | 30900
MSAAEDNKPVEAVEKVEEAPQAEEVPKVEEAPAQEEAGATASEKKDANILKTT | 25700
TGGFGSTNTGGGGLFGGGNTSNTGGGFGSTAGGFGSTNTTSAFGGAAKPAFGA | 19300
RIESHLSEREYKLQTFAEFLRVPDNGSLDIESLDSSLIENTLNSHDVTNQALD | 26700
ILDDFFNDGACNEINVILDKAKVRRDFLDYFMPEKEVKAEGDRSIVYILSNPK | 59200
LIVGGGATGAGTALDAASRGLKVALVERDDFSAGTSSKSTKLVHGGVRYLQKA | 51800
PIHALFCTHIWLLFKLCILCVLFLLSLLCLYGGSMINTGLRIILHLLLCVYLF | 81800
RFYVYLLILLGCIIWINQCQYATDRSGYQRGHSAVLRALFYRLCRLLQTAITP | 35000
CILVYLCHVSYLILLPRFDYVYNIIFNMVIGLTHNALWLLYSLPTSISLFRRF | 53500
NAVNKSRGMVKGSGRKLHQQKGTGRARMRDAQNPIRRGGGRAFAKTTARNWLV | 29500
SKVYLLKHFEGYIMGKLYGDYEYTFLDLQRTKGMHFVQKYLRMKHVIVFKLSH | 58700
MRGFYYYLFCLFAEFGIHGVLFHGGFFLLLFFFLSSSLWLALTRFRWPFPFVF | 57800
DLCFWLLDVCVLFSPGSCRLHQLSDKYFVEQLVLMNVFLIQVLLKFVFPLGRA | 74800
NSTVHNLIELIPLQQLCGFCCFSMRFVVFLDLLSTVVQPVIVGYIVYLIVILT | 60200
FWFPNYLFEALTFFSWMTWISPNNLNLEILTGFRNGLGMFNPWPTFDWNVLLF | 51500
EQPSAPAAAANSEEPDNKEAEKTETGAAAENKEAVANNGSESAEKEPAETSAS | 23500
AEGADAEGEGEEGEKEQEQEKQDGEKDGSEKETGNGQDGKKSEASLSVLNRLL | 29400
ARWSVAKVFYILGRYYGLFYMIVQLYISLTLDLALNVQRLLLVLDLVWRCCLY | 54000
GSDAPASGRAKSKTPKATGAKNGGKGGKGDATEEAEAKREEGGEEKRAAKKSK | 20000

Sequence | transcriptional activation domain activity
CDAPKLGLSGATLFEMIRFLDLYQGDWDSFLSQILVHAQIIRVLREALLILTV | 65300
MGLLGGRRAADYYLFLFFLFFFYLSLFSPRFSSFLHFPSYIELVGFFFFLLRL | 36700
RDAEKGKEKRRSRSKNRDEKMEHAEEATGGEPSREHKADSGKKSRRSSIKKSS | 29500
REGGGEGGGAQDGSSAPKKKRLGRKERIKSKAAGGDTGGEGADGAAASPEGAG | 39600
RADARSTTRPDGSADESFDALEEEVEEYYIYVHYKTITQPSKALNLVALGRLQ | 52000
SLHFNLGELRRTLLPFMWLTLKLSFFLWIFGRHAASNKRVVLCILALLCVLWE | 64800
MVFFTSSFLLGFFSFVSFRNHCSFFLMAPFLTGSELFLFFVLLFILFFFLALA | 64900
NCTNLPSVVVVGGSVPIDSQGLQIWSLLIYSIVLVPGLNLVVSSLIFLGIFWL | 30000
GVFCLALWVPATGFELVSFFALLVGAIFGVFWMVAGLKNLQSSLSISWLVIAL | 65200
MADTSTDGGPERTPVAAPISIKACDQCRARKVRCDKTSPCANCRKHNVKCTTS | 19000
AQPSAGFGQPSTIGAKPNPFGAPAFGQPAQPAGPAFGQPSQPTTTAAFGQPSQ | 29900
NEITIQDLNFLQFSSIPKLWENKTLEPGEEYHHSNGTNTDNNETTGADDTDDN | 24500
PLNMLHLGTWYLDGFQPFEHLRANKELWNLLVRGQTEILSLPRFGWTGWLLSF | 46900
MGLWARFICFVIVCLQITSLYCLFSCSPSFLYFKKIQPLFFTFFFFLLSLFPS | 52400
LLPKSFPYSFFILFFFFLNFLLSSCFFLLFFPSPIRLSPSFTLVVIFHYFLRF | 51500
IAAAGSNAASGHPDAKRAKTGASGSRAGSPSGSPPGSKPASRAGSPGAPRVPA | 16900
LVGALGPPGGLYSSSAGDTQERRRRREGERALKGFEVGDKWAGEVARRLRRTA | 60100
VNDAARILLAGLLEIKYTIREHLKSMFGSPWIIMYWRNWSGPLNITLELLGKC | 45200
SHLEQMLWRICSLVIICAPMYLALSGKVFLIFSNSIGQLYILLCIRGPFLLYI | 69600
PSNSLEDSIQQTVKARRKLSARPVLRVRIPNNNFSSNSAIPSEPSSASSTSAN | 19300
GELQFCYITGMVLGNLACMEQWGNIVRVIFRAFRLALDSPVFFRKVIQAIHTQ | 80700

Sequence | transcriptional activation domain activity
LETGSFQNYYQKMDAENADRVYSKGVKLIASGTLPSGIFNREELFEEDSFYKY | 68400
MPLRLRCNCILFYLLFFPLFFFNSTCDFSILLVIFFYSTFSLDFSSFLLFFFF | 55500
ANRIAIRLFHFLLECPDEMTRLVAIKKYIKNTYMIPTYLVTVNCILRLAGYWK | 55900
GSAAKAGAGTGAGKAAAGGKTSAAATARGGGGAGAGGGKGAGGASAKAGTGGG | 31600
KSVLERILVRGAMGSERHMKHELKVFYAMRGKLSWFIKWVHVVLRWVFAKSVL | 48000
KKEKAEKNKQQSKGQGQGEGDKEQKKEGEGEGEGGKDARAKGEKDGKDEKGAK | 46400
WLAHSKKKTCDVCKHPYSFTKVYATDMPSRLPPVLLLRRVAQQSFFAMLFAVR | 37900
IPSHQFAFGRFMALSSTLGCKFFFSSFNSFFYIFFITLFFSLLLLPFFKNLFF | 39300
NRKTIGKQDPYCAARLGKEAKKTETDRRGGQTPRWDQELRFTVHDSADYYQLK | 44000
GGKEEGGEETGERATKQQKTTPQESNKGSQGGNNNQRQGGGRNRHGRNRNGGG | 30400
VGRLVWFVTLLHVLFWVVQVLKDRRALTGKLVFAYVWQYQKFRFAWVAFLSMT | 75200
YAVPNDFVVTGGLLLLRYDRLNELPLGTRANSSVLVCVYRTWIALMRYLLAGP | 62800
VPRLKSPVYCVCLGSIILYSICLVLLVIYRVALIRESDGVCLIGFARGGSLPL | 31200
LFYFIFILFFFTLGDICFRFFYFMGPCFVLFKMVLLIFFSPFSFLHLSLSWVT | 43100
MKGVCLKVGTTKPKKPNSGERKIARVRLSSGKVITAYIQGEGHNVQQHSVVLV | 51000
ISCLGLTGWAGRFGSLYYIISMGGCSLSLGAMIAHVELKDSANCWWWFRYGFW | 77400
MGKKRCLERILFLFLYAILFHILLLLLPSFPFLYLYTFAFVFYFSLSIYLVSL | 43600
NPPSWHHTLVFWGGKLFFCFYRIILPAYLIGWARTLLYLTLSDLVSSYWLALT | 51300
YLSFLGIGVTFYTFLLLFFFLEDLEDFLVFFEGVLMIFLKLFIVFWTSLLVFL | 62000
MSSMHKLVTIFTGQGRVLSFFSLCVLRGLYYYSLLLRYLYFTLLVFFLSLFPF | 49100
PHTYNVILFLVIHDPEADVINRVKAYVTYVLRTMPKQLRLESFEMVFIRVLHL | 54600

Sequence | transcriptional activation domain activity
KILLNHNYFYFRMLCHHQTCNIYNLYHQIFLIFLQIIVSILLSLRIIALYLGN | 66400
KFIGYQWAYFAVISGALLYAWSRVIMLFVLRILPQDIRLIAFIITSIYCLILL | 24900
DAPPQKGDRKAEVQDGENGDEVGQDPKGKDKGGRGRGRGGRGRGGAARGGATA | 36600
ALNDPSILETLSPFFQPFGVDVAHLPMTNPPIFQSSLPGCDEPIRRRRISISN | 81300
ALVLLYIIRFVCTTLAKRFPSKSKLFFFMSTLRTVFVILLYTMISWLVNRHSR | 44800
EKVGTLWRARDVNERRQAKASGAAGGAAKATKPAGAAAASGAKPKATGAAGAA | 21900
DGAGAKDDEEDAGRMRTRGNGKRKGKGRAQDEAEAEAERVRAAEAFARRGAAK | 43300
AKDGEEEKEKPKRGRKRKEAPAAEGEAEGEAADDAEPPAKKTKPASKAAPASK | 23100
KAMGLLDSARIVSWHVSYSLVHLPSWISFAIIYKVRLFVKTNILILLVVHVLF | 41600
NDTKKNMSTSNLFPFSFSNTDLTALFTHPEGPNCTNTNNGNVDVCNRASTDAT | 51400
LPNVCLILPVYLRALVLNTLQVDKDQRTLLYESIRGHIVTLRGCKTGSKVIWL | 60800
MKPITPKLEEQEPAAYGAAASAATVPTTKRKCVSSACVPCRRRKSKVTPRNPL | 34500
MASSTSPSPSTTSIKSEVAPGRTVACLRCRGRRQFCSKERPQCKKCRDARAEC | 28800
MYETNLFQWKLSIGFGFVLDYFIGLFLLDFFILDCIFYLLINSAICVFYSLSG | 58100
RFLICDYLLIIAGLFNIVATSLTQVVVNLGLGRHIMDPSVFPNILQYSYYLWI | 25000
LWLYLAKQLFYEDLGWFFLLLAFYFTWPLIFLLFLIFWMLFVLVYVLFYLVSF | 52300
GEVSEAEANGATTQAEDGATPAEGADKKKKKKKARKSKKAADAAAGGAEKPAE | 17900
PSSTARRKLLLIYIDFKFFLAASWFRLCNLTLIGSVWWPIWGYMCWILSGPLF | 67300
NLCMQLLVAPTRDEIDAAHRRKIWLDVGIQSWRNLTNIMPSRMWIWIILLLSS | 34900
MGKGGYGEQRGGGRGGFRGGRGGGRGGFGGGGFNQGPPSEVVVVGTFVSACEG | 58400
